# According to article PMC9428257:
# B1: yeast-displayed wild-type sBCMA (human BCMA extracellular domain, Met1-Ala54) [human] / human APRIL (a proliferation-inducing ligand) [human] (parent)
# chain 1: MLQMAGQCSQNEYFDSLLHACIPCQLRCSSNTPPLTCQRYCNASVTNSVKGTNA
# chain 2: AVLTQKQKKQHSVLHLVPINATSKDDSDVTEVMWQPALRRGRGLQAQGYGVRIQDAGVYLLYSQVLFQDVTFTMGQVVSREGQGRQETLFRCIRSMPSHPDRAYNSCYSAGVFHLHQGDILSVIIPRARAKLNLSPHGTFLGFVKL
# Variants of: B1
# Assay: flow cytometry binding of yeast-displayed sBCMA
# Settings: with human APRIL (a proliferation-inducing ligand) [human]; parent: 262
row,screen value,Variant
1,325,chain 1 S16G H19Y T36A
2,1310,chain 1 S9P N11D S16G H19Y T36A N47S N53D
3,102,chain 1 S16G T36A

# Variants of: B1
# Assay: flow cytometry binding curve of yeast-displayed sBCMA
# Settings: with human APRIL (a proliferation-inducing ligand) [human]
Kd [nM],screen value [A.U.],Variant
0.018,5860,chain 1 S16G H19Y T36A
0.008,,chain 1 S16G H19Y T36A N53D
